Data taken from US20170115291A1, “Activating JAK Kinase Biomarkers Predictive of Anti-Immune Checkpoint Inhibitor Response” (Dana-Farber Cancer Institute, Inc., priority 2014, published 2017).

System: CD14+ myeloid cells
Test: PBMC stimulation with IFNγ, PD-L1 on CD14+ myeloid cells by flow cytometry
Type: cell-based, human
Conditions: JAK3 V722I positive patients vs JAK3 P132T positive patient or blood donor controls, 250 ng/ml, 48 h
Protocol: Peripheral blood mononuclear cells (PBMCs) from patients identified as having JAK3 V722I or P132T variants (see sequencing section above) and healthy donors were isolated from fresh blood and platelet-depleted blood collars, respectively, by Ficoll method. PBMCs were plated at a density of 7.5×10^5 cells/ml in a 48-well plate and stimulated with 250 ng/ml IFNγ (PBL Interferon Source). No stimulation controls were set-up for each donor. At 48 h post-stimulation, cells were treated with 2 mM EDTA and collected for flow cytometry to assess for PD-L1 expression on CD14+ myeloid cells. Cells were stained with Live/Dead yellow viability dye (Invitrogen), as well as antibodies (BD Biosciences) against CD14 (M5E2), CD11b (ICRF44), and PD-L1 (MIH1) for 30 min at 4 C, and then fixed in BD Cytofix® buffer prior to analyses on BD LSR Fortessa SORT® HTS flow cytometer. Given the need to compare the difference between two means in relation to the variation in the data, a t-test was used to compare PD-L1 inducibility between V722I and non-V722I monocytes.

B1: IFN-γ: cytokine known to trigger PD-L1 in the tumor immune microenvironment (protein, UniProt P01579 24-161, looked up)
Interferon gamma: QDPYVKEAENLKKYFNAGHSDVADNGTLFLGILKNWKEESDRKIMQSQIVSFYFKLFKNFKDDQSIQKSVETIKEDMNVKFFNSNKKKRDDFEKLTNYSVTDLNVQRKAIHELIQVMAELSPAAKTGKRKRSQMLFRG
Expression of PD-L1 on CD14+ myeloid cells: modest but significantly increased
